Reference: doi:10.1101/2023.03.09.531992 (bioRxiv, 2023)
Residue numbers refer to the chain shown, from its start. No end group written: not given here.

Experiments:
[1] = biological target: T1, S. pombe αWD40 domain (N-terminal WD40 domain of α-COPI), wild type (S. pombe, UniProt Q96WV5 1-327); assay: BLI
T1 sequence: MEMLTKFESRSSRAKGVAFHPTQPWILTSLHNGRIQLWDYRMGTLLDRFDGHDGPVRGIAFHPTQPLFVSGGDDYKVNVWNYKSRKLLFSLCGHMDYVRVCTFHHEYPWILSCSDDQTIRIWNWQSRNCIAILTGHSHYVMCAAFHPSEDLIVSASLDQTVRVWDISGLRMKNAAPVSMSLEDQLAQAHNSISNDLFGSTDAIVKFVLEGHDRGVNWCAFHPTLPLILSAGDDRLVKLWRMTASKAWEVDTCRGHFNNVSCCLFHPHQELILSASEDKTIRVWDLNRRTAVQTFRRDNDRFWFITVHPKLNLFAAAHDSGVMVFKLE

[2] = biological target: T2, S. cerevisiae β’WD40 domain (N-terminal WD40 domain of β’-COPI), wild type (S. cerevisiae, UniProt P41811 1-300); assay: NMR titration
T2 sequence: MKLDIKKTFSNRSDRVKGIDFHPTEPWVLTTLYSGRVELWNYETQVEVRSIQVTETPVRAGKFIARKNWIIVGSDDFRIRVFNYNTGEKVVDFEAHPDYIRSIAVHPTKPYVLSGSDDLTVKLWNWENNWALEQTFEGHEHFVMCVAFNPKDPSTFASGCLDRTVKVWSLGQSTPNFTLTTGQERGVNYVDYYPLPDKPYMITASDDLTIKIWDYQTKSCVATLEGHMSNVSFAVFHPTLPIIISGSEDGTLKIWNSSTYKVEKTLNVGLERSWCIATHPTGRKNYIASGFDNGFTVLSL

[3] = biological target: T3, S. pombe αWD40 Tyr139Ala mutant (S. pombe, UniProt Q96WV5 1-327, Tyr139Ala); assay: BLI
T3 sequence: T1 sequence with Y139A

[4] = biological target: T2, S. cerevisiae β’WD40 domain (N-terminal …); assay: BLI
[5] = biological target: T4, S. pombe αWD40 Arg300Ala mutant (S. pombe, UniProt Q96WV5 1-327, Arg300Ala); assay: BLI
T4 sequence: T1 sequence with R300A

[6] = biological target: T5, S. pombe αWD40 Arg13Ala mutant (S. pombe, UniProt Q96WV5 1-327, Arg13Ala); assay: BLI
T5 sequence: T1 sequence with R13A

Does GVKLHYE-NH2 (also: biotinylated) bind [1]?
Result: binds

Does CCKFDEDDSEPVLKGVKLHYE (cysteine pairing not given here; also: 15N isotope label) [15N-labeled clientized (Thr1273Glu) SARS-CoV-2 S C-terminal tail peptide (NMR)] bind [2]?
Result: binds

With GVKLHYE (also: biotinylated) [clientized (Thr1273Glu) SARS-CoV-2 S tail heptapeptide (residues 1267-1273), biotinylated] as the binder, how does the Kd [3] read?
Its Kd is 3.8 ± 0.36 µM.

And the Kd [4]?
The Kd was 2300 ± 230 nM.

What about the Kd [5] of the same binder?
Its Kd is 4.2 ± 0.4 µM.

Does GVKLHYT (also: biotinylated) [wild-type SARS-CoV-2 S tail heptapeptide (residues 1267-1273), biotinylated] bind [6]?
Result: binds

And the Kd [5]?
Its Kd is 3.6 ± 0.4 µM.
